Assay results: patent US20030147861A1, “Compounds and methods for the modulation of immune responses” (Genesis Research and Development Corporation Limited, priority 2001, published 2003)

Assays:
[1] = system: MAP kinase signaling pathway in THP-1 cells (IL-10 production); experiment: AVAC-induced IL-10 production by THP-1 cells pre-treated with MAP kinase inhibitors (ELISA); type: cell-based, human; conditions: inhibitor pre-treatment 120 minutes; 25 μg/mL AVAC, 24 hours
Method: The involvement of the MAP kinase signaling pathway in the production of IL-10 by THP-1 cells in response to AVAC was assessed as follows.
Prior to culture with AVAC, 50 μL of THP-1 cells in cRPMI-10 were pre-treated in duplicate microplate wells with 50 μL of serially diluted PD98059 (Calbiochem cat. no. 51300, a selective inhibitor of MAP kinase), SB202190 (Calbiochem cat. no. 559388, an inhibitor of p38 MAP kinase and p38β MAP kinase), SB203580 (Calbiochem cat. no. 559389, a highly specific inhibitor of p38 MAP kinase), with SB202474 (Calbiochem cat. no. 559387, a negative control for MAP kinase inhibition studies), or with no added chemicals. MAP kinase inhibitors and control were used at a final concentration of 100 μg/mL, 20 μg/mL, 4.0 μg/mL, 0.8 μg/mL, 0.16 μg/mL, or […]. Pretreatment of cells with MAP kinase inhibitors and control was for 120 minutes in a water-jacketed, humidified incubator at 37° C. supplied with 5% CO2 in air.
Following pretreatment, the cells were washed once in cPRMI-10 to remove inhibitor or control chemicals. […] IL-10 content in the microculture supernatants was determined by sandwich ELISA using a commercially available set (eBioscience cat. no. 88-7106-77,) according to the manufacturer's recommendations. […]

[2] = system: CD40, CD80 and CD86 on dendritic cells; type: cell-based, human
[3] = system: CD69 on αβT cells, γδT cells and NK cells; type: cell-based, human
[4] = system: IL-1β, TNF-α, IL-12 and IFN-γ production in PBMC; experiment: Cytokine production in PBMC from normal donors (ELISA); type: cell-based, human
[5] = system: CD40, CD80 and CD86 on monocytes; experiment: CD40, CD80 and CD86 expression on monocytes (3 color flow cytometry); type: cell-based, human; conditions: 20 ug/ml, 48 hours, vs non-stimulated cells
Source text: (§1) Stimulated cells were harvested and analyzed for up-regulation of CD40, CD80 and CD86 using 3 color flow cytometric analysis. Tables 16, 17 and 18 show the fold increase in mean fluorescence intensity from control (non-stimulated cells) for dendritic cells, monocytes, and B cells, respectively.

[6] = system: popliteal lymph node cells; experiment: Proliferation of lymph node cells from GV protein-immunized mice; type: cell-based, female BALB/cByJ mice; conditions: lymph node cells of mice immunized with 10 μg of the same GV protein in IFA
Method: (§2) The immunogenicity of Mycobacterium vaccae recombinant proteins (referred to herein as GV recombinant proteins) was tested by injecting female BALB/cByJ mice in each hind foot-pad with 10 μg of recombinant GV proteins emulsified in incomplete Freund's adjuvant (IFA). Control mice received phosphate buffered saline in IFA. The draining popliteal lymph nodes were excised 10 days later and the cells obtained therefrom were stimulated with the immunizing GV protein and assayed for proliferation by measuring the uptake of tritiated thymidine. The amount of interferon gamma (IFNγ) produced and secreted by these cells into the culture supernatants was assayed by standard enzyme-linked immunoassay.

[7] = system: CD40, CD80 and CD86 on B cells; experiment: CD40, CD80 and CD86 expression on B cells (3 color flow cytometry); type: cell-based, human; conditions: 20 ug/ml, 48 hours, vs non-stimulated cells
Source text: as §1

[8] = system: IFNγ production by lymph node cells; experiment: IFNγ production by lymph node cells from GV protein-immunized mice (enzyme-linked immunoassay); type: cell-based, female BALB/cByJ mice; conditions: lymph node cells of mice immunized with the same GV protein
Method: as §2

[9] = dendritic cells, 20 ug/ml, 48 hours, vs non-stimulated cells
[10] = Dose of GV protein used in vitro 0.08 μg/ml
[11] = Dose of GV protein used in vitro 2 μg/ml
[12] = Dose of GV protein used in vitro 50 μg/ml

Molecule: Oc1ccc(-c2nc(-c3ccncc3)c(-c3ccc(F)cc3)[nH]2)cc1 [SB202190]
- suppression of AVAC-induced production of IL-10 by THP-1 cells [1]: substantially suppressed in a dose-dependent manner

Molecule: C[S+]([O-])c1ccc(-c2nc(-c3ccncc3)c(-c3ccc(F)cc3)[nH]2)cc1 (stereo not drawn) [SB203580]
- suppression of AVAC-induced production of IL-10 by THP-1 cells [1]: substantially suppressed in a dose-dependent manner

Molecule: cholera toxin [reference compound]
- CD40, CD80 and CD86 expression in dendritic cells, comparison with adjuvants [2]: modest
- CD69 expression on NK cells, comparison with adjuvants [3]: did not

B1: GV-45: recombinant M. vaccae antigen, amino acid sequence SEQ ID NO: 52 (protein, listed as Mycobacterium vaccae)
chain: MNKAELIDVLTEKLGSDRRQATAAVENVVDTIVRAVHKGESVTITGFGVFEQRRRAARVARNPRTGETVKVKPTSVPAFRPGAQFKAVVSGAQKLPAEGPAVKRGVTATSTARKAAKKAPAKKAAAKKAAPAKKAPAKKAATKAAPAKKATAAKKAAPAKKATAAKKAAPAKKAPAKKAATKAAPAKKAPAKKAATKAAPAKKAPAAKKAPAKKAPAKRGGRK
- CD40, CD80 and CD86 expression on dendritic cells ([2]; 20 ug/ml, 48 hours, T cell-depleted PBMC): highest levels of expression
- CD40 expression, fold increase in mean fluorescence intensity from control [2, 9]: 5.8 fold
- CD80 expression, fold increase in mean fluorescence intensity from control [2, 9]: 3.0 fold
- CD86 expression, fold increase in mean fluorescence intensity from control [2, 9]: 3.1 fold
- production of IL-1β, TNF-α, IL-12 and IFN-γ by PBMC [4]: stimulate the production of IL-1β, TNF-α and IL-12
- CD40 expression, fold increase in mean fluorescence intensity from control [5]: 1.6 fold
- CD80 expression, fold increase in mean fluorescence intensity from control [5]: 1.2 fold
- CD86 expression, fold increase in mean fluorescence intensity from control [5]: 1.0 fold
- Proliferation (cpm) [6, 10]: 1,497 ± 199 cpm
- Proliferation (cpm) [6, 11]: 3,683 ± 1,127 cpm
- Proliferation (cpm) [6, 12]: 9,554 ± 482 cpm
- CD40 expression, fold increase in mean fluorescence intensity from control [7]: 1.2 fold
- CD80 expression, fold increase in mean fluorescence intensity from control [7]: 1.1 fold
- CD86 expression, fold increase in mean fluorescence intensity from control [7]: 1.3 fold
- percentage of αβT cells expressing CD69 ([3]; PBMC from normal donors, 20 ug/ml, 24 hours, control 3.8): 11.7%
- percentage of NK cells expressing CD69 ([3]; PBMC from normal donors, 20 ug/ml, 24 hours, control 4.8): 6.3%
- percentage of γδT cells expressing CD69 ([3]; PBMC from normal donors, 20 ug/ml, 24 hours, control 6.2): 4.9%

B2: GV-35: recombinant M. vaccae antigen, amino acid sequence SEQ ID NO: 45 (protein, listed as Mycobacterium vaccae)
chain: MKANHSGCYKSAGPIWSHPSPLCSPALAPSHAGLDNELSLGVHGQGPEHLTIQQWDTFLNGVFPLDRNRLTREWFHSGKATYVVAGEGADEFEGTLELGYHVGFPWSLGVGINFSYTTPNITYDGYGLNFADPLLGFGDSIVTPPLFPGVSITADLGNGPGIQEVATFSVDVAGPGGSVVVSNAHGTVTGAAGGVLLRPFARLISSTGDSVTTYGAPLKHELTTSRWRPPGVNRGPLHAGREAPEVRSKWPTAANACARDSSSLTQGLVVVECHPVTPPHRPRRDGRGSGVWAPALGTYGGDRRRDVTSVAVFAGNPDGPAESPHPSSEPGGSKEF
- Proliferation (cpm) [6, 10]: 1,626 ± 406 cpm
- Proliferation (cpm) [6, 11]: 9,968 ± 314 cpm
- Proliferation (cpm) [6, 12]: 29,163 ± 2,693 cpm

B3: GV-33: recombinant M. vaccae antigen, amino acid sequence SEQ ID NO: 44 (protein, listed as Mycobacterium vaccae)
chain: MVRAALRYGFGTASLLAGGFVLRALQGTPAALGATPGEVAPVARRSPNYRDGKFVNLEPPSGITMDRDLQRMLLRDLANAASQGKPPGPIPLAEPPKGDPTPAPAAASWYGHSSVLIEVDGYRVLADPVWSNRCSPSRAVGPQRMHDVPVPLEALPAVDAVVISHDHYDHLDIDTIVALAHTQRAPFVVPLGIGAHLRKWGVPEARIVELDWHEAHRIDDLTLVCTPARHFSGRLFSRDSTLWASWVVTGSSHKAFFGGDTGYTKSFAEIGDEYGPFDLTLLPIGAYHPAFADIHMNPEEAVRAHLDLTEVDNSLMVPIHWATFRLAPHPWSEPAERLLTAADAERVRLTVPIPGQRVDPESTFDPWWRF
- Proliferation (cpm) [6, 10]: 8,764 ± 256 cpm
- Proliferation (cpm) [6, 11]: 27,529 ± 1,238 cpm
- Proliferation (cpm) [6, 12]: 41,529 ± 1,919 cpm
- IFNγ [8, 11]: 1.52 ± 0.24 ng/mL
- IFNγ ([8]; Dose of GV protein used in vitro 10 μg/ml): 8.44 ± 2.35 ng/mL
- IFNγ [8, 12]: 7.71 ± 0.26 ng/mL
